B1: nanobody C1 (monovalent VHH, pOPINO construct) (VHH)
VHH: QVQLVESGGGLVQPGGSLRLSCAASGFTNDFYSIAWFRQAPGKEREGVSWLSVSDNTPTYVDSVKDRFTISRHNANNTVYLQMNMLKPEDTAIYYCAAGRFAGRDTWPSSYDYWGQGTQVTVSS
B2: nanobody F2 (monovalent VHH, pOPINO construct) (VHH)
VHH: QVQLVESGGGLVQAGGSLRLACIASGRTFHSYVMAWFRQAPGKEREFVAAISWSSTPTYYGESVKGRFTISRDNAKNTVYLQMNRLKPEDTAVYFCAADRGESYYYTRPTEYEFWGQGTQVTVSS

Target: SARS-CoV-2 receptor-binding domain (amino acids 330-532), Victoria strain, biotinylated (SARS-CoV-2, Wuhan/Victoria (B), UniProt P0DTC2, biotinylated (site not stated))
Assay: SPR
Details: both partners purified

Binder	Kd	T1/2
B1	0.615 nM	20 min
B2	0.04 nM	

Source: paper PMC8458290 (Nature Communications, 2021)
